Results taken from patent US20040018515.

Legend:
[1] = test system: Erk2
[2] = test system: p386

| Substance | initial rate of fluorescence increase (535 nm) of the ADP NASM FRET assay, reporting ADP yield from ATP hydrolysis [1] | initial rate of fluorescence increase (535 nm) of the ADP NASM FRET assay, reporting ADP yield from ATP hydrolysis [2] |
| --- | --- | --- |
| Mek1 | substantially enhanced fluorescence was observed (Table 17, shaded cells; 150-300 RFU/min) | – |
| Mek 6 | – | substantially enhanced fluorescence was observed (Table 17, shaded cells; 150-300 RFU/min) |
